Experiments:
[1] = target: T1, human sodium-dependent phosphate transporter 2B (NaPi2b) (human, UniProt O95436 1-690); assay: flow cytometry, IGROV-1 cells (endogenous NaPi2b), 24 h at 4 °C; apparent Kd
T1 construct: UniProt ID is given as 095436 [sic]; also called hNaPi2b; Hu NaPi2b
T1 sequence: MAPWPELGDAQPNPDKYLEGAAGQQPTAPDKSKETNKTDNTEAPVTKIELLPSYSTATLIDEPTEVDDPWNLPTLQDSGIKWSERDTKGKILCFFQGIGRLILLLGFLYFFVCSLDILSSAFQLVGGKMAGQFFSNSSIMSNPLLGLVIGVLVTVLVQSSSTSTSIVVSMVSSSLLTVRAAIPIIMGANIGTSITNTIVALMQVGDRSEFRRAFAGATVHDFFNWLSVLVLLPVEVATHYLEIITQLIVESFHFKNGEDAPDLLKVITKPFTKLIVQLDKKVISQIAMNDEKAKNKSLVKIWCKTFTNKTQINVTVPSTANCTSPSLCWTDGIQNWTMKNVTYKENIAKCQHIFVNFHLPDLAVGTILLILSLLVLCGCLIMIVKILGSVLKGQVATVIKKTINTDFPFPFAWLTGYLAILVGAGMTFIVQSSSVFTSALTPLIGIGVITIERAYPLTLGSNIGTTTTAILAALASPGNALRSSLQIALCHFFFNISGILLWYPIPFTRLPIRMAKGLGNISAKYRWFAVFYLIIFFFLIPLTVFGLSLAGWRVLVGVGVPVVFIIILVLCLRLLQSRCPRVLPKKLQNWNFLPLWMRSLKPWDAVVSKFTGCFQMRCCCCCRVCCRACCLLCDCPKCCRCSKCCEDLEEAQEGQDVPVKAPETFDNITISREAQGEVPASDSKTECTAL
Experimental: (§1) IGROV-1 cells express endogenous NaPi2b at a high level.
(§2) Briefly, cells were seeded at 50,000 cells/well in conical-bottom 96-well plates and treated with test antibody for 24 hours at 4° C. to prevent internalization. […] Following incubation, cells were washed and stained with anti-Human IgG Fc AF647 conjugate (Jackson Immuno Research Labs, West Grove, PA; Cat. No. 109-605-098) at 4° C. for 30 min. Following incubation and washing, fluorescence was detected by flow cytometry on a BD LSRFortessa™ Cell Analyzer (BD Biosciences, Franklin Lake, NJ) with 1,000 minimum events collected per well. The AF647/APC-A GeoMean (fluorescence signal geometric mean, proportional to anti-Human AF647 binding) was calculated for the live cell population using FlowJo™ Version 10.8.1 (BD Biosciences, Franklin Lake, NJ) and plotted for each test antibody using GraphPad Prism Version 9 (GraphPad Software, San Diego, CA).

[2] = target: T1, human sodium-dependent phosphate …; assay: flow cytometry, IGROV-1 cells (endogenous NaPi2b), 24 h at 4 °C
Experimental: as §1, §2

[3] = target: T1, human sodium-dependent phosphate …; assay: cell-based or functional assay
cynomolgus monkey NaPi2b [4] = target: T2, cynomolgus monkey NaPi2b (cynomolgus monkey, UniProt O95436 1-690 (human entry)); assay: flow cytometry, HEK293-6e cells transfected with cynomolgus NaPi2b
T2 construct: Transiently expressed on HEK293-6e cells; also called Cyno NaPi2b
T2 chain: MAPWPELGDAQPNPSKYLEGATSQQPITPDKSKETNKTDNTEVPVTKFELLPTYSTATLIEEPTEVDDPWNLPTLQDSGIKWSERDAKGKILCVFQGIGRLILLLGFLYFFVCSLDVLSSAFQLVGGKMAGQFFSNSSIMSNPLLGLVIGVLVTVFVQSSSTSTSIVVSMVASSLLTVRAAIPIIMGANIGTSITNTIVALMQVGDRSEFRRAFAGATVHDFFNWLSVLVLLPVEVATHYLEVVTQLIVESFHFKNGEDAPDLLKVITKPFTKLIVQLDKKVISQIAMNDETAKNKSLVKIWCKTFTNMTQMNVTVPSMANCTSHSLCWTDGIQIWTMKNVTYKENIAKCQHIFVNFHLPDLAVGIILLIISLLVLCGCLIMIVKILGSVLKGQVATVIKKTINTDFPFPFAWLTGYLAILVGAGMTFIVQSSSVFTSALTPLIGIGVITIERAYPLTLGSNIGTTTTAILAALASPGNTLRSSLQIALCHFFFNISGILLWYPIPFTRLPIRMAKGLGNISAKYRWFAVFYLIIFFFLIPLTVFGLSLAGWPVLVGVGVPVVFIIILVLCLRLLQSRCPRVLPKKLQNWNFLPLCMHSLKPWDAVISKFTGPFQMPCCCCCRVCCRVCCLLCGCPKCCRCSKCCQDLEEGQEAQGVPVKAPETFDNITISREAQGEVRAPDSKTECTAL
Experimental: (§3) The binding cross-reactivity of humanized antibody variant v29456 to human, cynomolgus and mouse NaPi2b was assessed by flow cytometry using HEK293-6e transfected cells.
(§4) Briefly, HEK293-6e cells were transfected for ˜24 hours to transiently express human NaPi2b, cynomolgus or mouse NaPi2b, at 1 μg of DNA per 1 million cells. Following transfection, 50,000 cells per well were seeded in V-bottom 96-well plates and incubated with 200 nM of primary antibody for 18-24 hours at 4° C. to prevent internalization. Post-incubation, cells were washed and stained with anti-Human IgG Fc AF647 conjugate (Jackson Immuno Research Labs, West Grove, PA, Cat. No. 109-605-098, Lot. No. 124868) at 4° C. for 1 hour. Following staining and washing, fluorescence was detected by flow cytometry on BD LSRFortessa™ Cell Analyzer (BD Biosciences, Franklin Lake, NJ) with 10,000 minimum events collected per well. The AF647/APC-A GeoMean (fluorescence signal geometric mean, proportional to anti-Human AF647 binding) was calculated for the live singlet cell population for each primary antibody using FlowJo™ v8 software (BD Biosciences, Franklin Lake, NJ). The Bmax and Kd of each primary antibody were calculated using GraphPad Prism Version 9 (GraphPad Software, San Diego, CA)

[5] = target: T1, human sodium-dependent phosphate …; assay: flow cytometry, IGROV-1 cells (endogenous NaPi2b); apparent Kd
Experimental: as §2
(§5) The ability of the humanized antibody variants v38591 and v29456 to bind to NaPi2b expressed on cells was assessed on endogenous NaPi2b-expressing tumor cell lines IGROV-1 (ovarian adenocarcinoma) and TOV-21G (ovarian carcinoma) by flow cytometry.
(§6) Cellular binding was performed according to methods described in Example 13.

[6] = target: T1, human sodium-dependent phosphate …; assay: flow cytometry, TOV-21G cells (endogenous NaPi2b); apparent Kd
Experimental: as §2, §5, §6

[7] = target: T1, human sodium-dependent phosphate …; assay: flow cytometry on IGROV-1 cells (endogenous NaPi2b), 24 h at 4 C, anti-human IgG Fc AF647 detection
Experimental: as §2, §5, §6

[8] = target: T1, human sodium-dependent phosphate …; assay: flow cytometry, HEK293-6e cells transfected with human NaPi2b
Experimental: as §3, §4

[9] = target: T1, human sodium-dependent phosphate …; assay: flow cytometry, HEK293-6e cells transfected with human NaPi2b; apparent Kd
Experimental: The binding cross-reactivity of humanized antibody variant v38591 to human NaPi2b, NaPi2a, and NaPi2c was assessed by flow cytometry using HEK293-6e transfected cells.
Following transfection, cells were seeded at 50,000 cells/well in conical-bottom 96-well plates and treated with test antibody for 24 hours at 4° C. to prevent internalization. Following incubation, cells were washed and stained with anti-Human IgG Fc AF647 conjugate (Jackson Immuno Research Labs, West Grove, PA; Cat. No. 109-605-098) or anti-Rabbit IgG F(ab″)2 AF647 conjugate (Jackson Immuno Research Labs, West Grove, PA; Cat. No. 111-605-047). Following incubation and washing, fluorescence was detected by flow cytometry on a BD LSRFortessa™ Cell Analyzer (BD Biosciences, Franklin Lake, NJ) with 1,000 minimum events collected per well. The AF647/APC-A GeoMean (fluorescence signal geometric mean, proportional to anti-Human AF647 binding) was calculated for the live cell population using FlowJo™ Version 10.8.1 (BD Biosciences, Franklin Lake, NJ) and plotted for each test antibody using GraphPad Prism Version 9 (GraphPad Software, San Diego, CA).

[10] = target: T1, human sodium-dependent phosphate …; assay: as above; remark: listed apart in the source
Experimental: as §3, §4

cynomolgus monkey NaPi2b [11] = target: T2, cynomolgus monkey NaPi2b; assay: flow cytometry, HEK293-6e cells transfected with cynomolgus NaPi2b; apparent Kd
Experimental: as §3, §4

[12] = target: T1, human sodium-dependent phosphate …; assay: flow cytometry on TOV-21G cells (endogenous NaPi2b), 24 h at 4 C, anti-human IgG Fc AF647 detection
Experimental: as §2, §5, §6

Binder	Kd [1] [nM]	Bmax (MFI) [2] [MFI]	In vitro cytotoxicity EC50 (nM), HCC-78 [3] [nM]	In vitro cytotoxicity EC50 (nM), IGROV-1 [3] [nM]	In vitro cytotoxicity EC50 (nM), OVCAR-3 [3] [nM]	Bmax (APC-A GeoMean) (cynomolgus monkey NaPi2b [4])	Kd [5] [nM]	Kd [6] [nM]	EC50 (read off the curve) [7] [nM]	Bmax (APC-A GeoMean) [8] [APC-A GeoMean]	Kd [9] [nM]	Kd [10] [nM]	Kd (cynomolgus monkey NaPi2b [11]) [nM]	EC50 (read off the curve) [12] [nM]
v18993-DL2, lifastuzumab conjugated to MT-VC-Compound 1 (DAR 4) (antibody, human IgG1, kappa, MT-VC-Compound 1 (DL2) on cysteines freed by reduction; positions not given; MT-VC-Compound 1 (DL2) on cysteines freed by reduction; positions not given; DAR 4 for the whole antibody, also called Lifa Compound 1 ADC; lifastuzumab-DL2 ADC) heavy 1: GEVQLVESGGGLVQPGGSLRLSCAASGFSFSDFAMSWVRQAPGKGLEWVATIGRVAFHTYYPDSMKGRFTISRDNSKNTLYLQMNSLRAEDTAVYYCARHRGFDVGHFDFWGQGTLVTVSSASTKGPSVFPLAPSSKSTSGGTAALGCLVKDYFPEPVTVSWNSGALTSGVHTFPAVLQSSGLYSLSSVVTVPSSSLGTQTYICNVNHKPSNTKVDKKVEPKSCDKTHTCPPCPAPELLGGPSVFLFPPKPKDTLMISRTPEVTCVVVDVSHEDPEVKFNWYVDGVEVHNAKTKPREEQYNSTYRVVSVLTVLHQDWLNGKEYKCKVSNKALPAPIEKTISKAKGQPREPQVYVYPPSRDELTKNQVSLTCLVKGFYPSDIAVEWESNGQPENNYKTTPPVLDSDGSFALVSKLTVDKSRWQQGNVFSCSVMHEALHNHYTQKSLSLSPG heavy 2: not shown light: GDIQMTQSPSSLSASVGDRVTITCRSSETLVHSSGNTYLEWYQQKPGKAPKLLIYRVSNRFSGVPSRFSGSGSGTDFTLTISSLQPEDFATYYCFQGSFNPLTFGQGTKVEIKRTVAAPSVFIFPPSDEQLKSGTASVVCLLNNFYPREAKVQWKVDNALQSGNSQESVTEQDSKDSTYSLSSTLTLSKADYEKHKVYACEVTHQGLSSPVTKSFNRGEC	3	39800	1.77	2.12	0.49									
v18993, reference anti-NaPi2b antibody lifastuzumab (antibody, human IgG1, kappa, Two different heavy chain clones (CL_#11677, CL_#11678)) heavy 1: GEVQLVESGGGLVQPGGSLRLSCAASGFSFSDFAMSWVRQAPGKGLEWVATIGRVAFHTYYPDSMKGRFTISRDNSKNTLYLQMNSLRAEDTAVYYCARHRGFDVGHFDFWGQGTLVTVSSASTKGPSVFPLAPSSKSTSGGTAALGCLVKDYFPEPVTVSWNSGALTSGVHTFPAVLQSSGLYSLSSVVTVPSSSLGTQTYICNVNHKPSNTKVDKKVEPKSCDKTHTCPPCPAPELLGGPSVFLFPPKPKDTLMISRTPEVTCVVVDVSHEDPEVKFNWYVDGVEVHNAKTKPREEQYNSTYRVVSVLTVLHQDWLNGKEYKCKVSNKALPAPIEKTISKAKGQPREPQVYVYPPSRDELTKNQVSLTCLVKGFYPSDIAVEWESNGQPENNYKTTPPVLDSDGSFALVSKLTVDKSRWQQGNVFSCSVMHEALHNHYTQKSLSLSPG heavy 2: not shown light: GDIQMTQSPSSLSASVGDRVTITCRSSETLVHSSGNTYLEWYQQKPGKAPKLLIYRVSNRFSGVPSRFSGSGSGTDFTLTISSLQPEDFATYYCFQGSFNPLTFGQGTKVEIKRTVAAPSVFIFPPSDEQLKSGTASVVCLLNNFYPREAKVQWKVDNALQSGNSQESVTEQDSKDSTYSLSSTLTLSKADYEKHKVYACEVTHQGLSSPVTKSFNRGEC						1560	0.81	0.67	~0.8	1610	5.76	1.22	6.27	~0.7

Reference: patent US20250277030A1 (Zymeworks, published 2025)
